In this test the target is V5–FoTO1 (Taxus media). In words: co-IP; lysate of N. benthamiana leaves co-expressing both proteins; anti-V5 antibody on protein G magnetic beads, blot with anti-HA-HRP; lysates incubated 15 min with no compound, 45 μM taxadiene or a mock terpene (caryophyllene); extraction buffer 50 mM Tris pH 7.5, 150 mM NaCl, 0.6% NP-40, 0.6% CHAPS, 1 mM β-mercaptoethanol.

Sequence of T5αH–HA (Q6WG30 whole entry): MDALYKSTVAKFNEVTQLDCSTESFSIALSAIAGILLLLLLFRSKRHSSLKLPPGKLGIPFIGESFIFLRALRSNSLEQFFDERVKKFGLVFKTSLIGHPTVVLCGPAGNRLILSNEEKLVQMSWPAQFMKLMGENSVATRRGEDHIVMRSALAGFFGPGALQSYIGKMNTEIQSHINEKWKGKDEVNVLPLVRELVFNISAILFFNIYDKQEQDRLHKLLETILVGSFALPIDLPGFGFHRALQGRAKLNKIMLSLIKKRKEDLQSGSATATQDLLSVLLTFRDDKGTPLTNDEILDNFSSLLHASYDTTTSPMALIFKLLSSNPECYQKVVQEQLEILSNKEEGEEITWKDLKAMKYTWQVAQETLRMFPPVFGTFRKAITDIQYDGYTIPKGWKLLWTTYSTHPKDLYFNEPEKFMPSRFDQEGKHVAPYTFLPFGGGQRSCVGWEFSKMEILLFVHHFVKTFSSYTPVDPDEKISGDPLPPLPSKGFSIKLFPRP

Regarding “T5αH–HA (from UniProt Q6WG30 1-499) (enzyme)”, the fold increase of the co-IP signal with 45 μM taxadiene turned out to be 4 fold.
